Experimental findings from patent US20220143136A1, “USE OF ANNEXINS IN PREVENTING AND TREATING MUSCLE MEMBRANE INJURY” (NORTHWESTERN UNIVERSITY, priority 2018, published 2022) are described below.

For one assay, the system named is wildtype mice. Nature of the assay: Cardiotoxin injury, systemic retro-orbital recombinant annexin A6, Evan's blue dye uptake. The assay is classed as in vivo, mouse. As to conditions: vs vehicle; for decrease in Evan's blue dye uptake, fluorescence imaging of tibialis anterior: 1 mg/kg retro-orbital 2 hours before cardiotoxin, 3 hours post injury. As to the method: Cardiotoxin Injury and analysis. […] Additionally, mice were injected intraperitoneally with Evans' blue dye at 5 μl/g body weight (E-2129; Sigma-Aldrich, St. Louis, Mo.) dissolved in phosphate-buffered saline at 10 mg/mL. […] Cardiotoxin injury was performed injecting 20 μl of a 10 μM cardiotoxin (discontinued, Sigma-Aldrich) solution in PBS in tibialis muscles in sedated animals (3% isoflurane, 0.8 l/min O2) 2 hours post pretreatment. Cardiotoxin was released down the midline of the muscle to induce a homogenous area of injury at the center of the muscle. 3 hours post cardiotoxin injection muscle was harvested and frozen in liquid nitrogen.
(§1) Immunofluorescence microscopy. Sections (10 μm thick) from the center of frozen-embedded muscles were collected on the cryostat (chamber, −20° C.; sample, −15° C.; catalog number CM1950; Leica, Wetzlar, Germany) for immunostaining. Tissues were fixed with 4% paraformaldehyde for 10 minutes on ice. Block and permeabilization were with 0.1% Triton (catalog number X-100; Sigma-Aldrich), 10% fetal bovine serum, and PBS for 60 minutes. For dystrophin detection, anti-dystrophin (ab15277; Abcam, Cambridge, Mass.) was used at a dilution of 1:100 overnight at 4° C. Sections were PBS rinsed, incubated with secondary antibody goat anti rabbit (A11008, Invitrogen) for 1 hour, PBS rinsed, and mounted in vectashield with DAPI (H-1200, Vector Laboratories). Imaging was performed using a Zeiss Axio Observer A1 microscope (Zeiss, Oberkochen, Germany), using a 10× objective. ZEN software (Zeiss, Jena, Germany) was used for acquiring images. Fluorescence quantitation and muscle area were performed using FIJI (NIH). Surface plots were created in FIJI (NIH). Fluorescence volume was quantified using Imaris Software v9.1.2.
Cardiotoxin Injury and analysis. […] Additionally, mice were injected with Evans' blue dye at 5 μl/g body weight (E-2129; Sigma-Aldrich, St. Louis, Mo.) dissolved in phosphate-buffered saline at 10 mg/mL cardiotoxin injury was performed injecting 20 μl of a 10 μM cardiotoxin solution in PBS in tibialis anterior or gastroc/soleus muscles in sedated animals (3% isoflurane, 0.8 l/min O2) 2 hours post pretreatment. Cardiotoxin was released down the midline of the muscle to induce a homogenous area of injury at the center of the muscle. 3 hours post cardiotoxin injection muscle was harvested.
Evans blue dye uptake. Sections (10 μm thick) from the center of frozen-embedded muscles were collected on the cryostat (chamber, −20° C.; sample, −15° C.; catalog number CM1950; Leica, Wetzlar, Germany). Tissue sections were fixed with methanol for 2 minutes, rinsed and mounted with vectashield with DAPI (H-1200, Vector Laboratories). Imaging was performed using a Zeiss Axio Observer A1 microscope (Zeiss, Oberkochen, Germany), using a 10× objective. ZEN software (Zeiss, Jena, Germany) was used for acquiring images. Fluorescence quantitation, surface plots, and muscle area were performed using FIJI (NIH). For whole tissue dye quantification, whole tissue was dissected, finely minced, weighed, and incubated at 55° C. in 1 mL of formamide for 2 hours. Spectrophotometric absorbance was measured at 620 nm.

Assay [1] relates to mdx/hLTBP4 dystrophic muscle. The experiment in a line: Anti-HIS immunofluorescence localization after systemic injection, mdx/hLTBP4. The assay is classed as in vivo, mouse. As to conditions: 6 hours post systemic injection, vs PBS. Here is the method: as §1
Immunofluorescence microscopy. Mice were systemically injected with recombinant annexin A6 with a C-terminal HIS tag (R&D). Muscle was harvested and flash frozen. […]

B1: recombinant annexin A6: recombinant human annexin A6 protein with C-terminal HIS tag (5186-A6-050, R&D systems); mouse protein from Northwestern core in one cohort (protein, UniProt P08133 2-673, looked up)
Annexin A6: AKPAQGAKYRGSIHDFPGFDPNQDAEALYTAMKGFGSDKEAILDIITSRSNRQRQEVCQSYKSLYGKDLIADLKYELTGKFERLIVGLMRPPAYCDAKEIKDAISGIGTDEKCLIEILASRTNEQMHQLVAAYKDAYERDLEADIIGDTSGHFQKMLVVLLQGTREEDDVVSEDLVQQDVQDLYEAGELKWGTDEAQFIYILGNRSKQHLRLVFDEYLKTTGKPIEASIRGELSGDFEKLMLAVVKCIRSTPEYFAERLFKAMKGLGTRDNTLIRIMVSRSELDMLDIREIFRTKYEKSLYSMIKNDTSGEYKKTLLKLSGGDDDAAGQFFPEAAQVAYQMWELSAVARVELKGTVRPANDFNPDADAKALRKAMKGLGTDEDTIIDIITHRSNVQRQQIRQTFKSHFGRDLMTDLKSEISGDLARLILGLMMPPAHYDAKQLKKAMEGAGTDEKALIEILATRTNAEIRAINEAYKEDYHKSLEDALSSDTSGHFRRILISLATGHREEGGENLDQAREDAQVAAEILEIADTPSGDKTSLETRFMTILCTRSYPHLRRVFQEFIKMTNYDVEHTIKKEMSGDVRDAFVAIVQSVKNKPLFFADKLYKSMKGAGTDEKTLTRIMVSRSEIDLLNIRREFIEKYDKSLHQAIEGDTSGDFLKALLALCGGED
modifications: C-terminal His tag
notes: recombinant human annexin A6 protein with C-terminal HIS tag (5186-A6-050, R&D systems); mouse protein from Northwestern core in one cohort
As to B1, the “decrease in Evan's blue dye uptake, fluorescence imaging of tibialis anterior” value is recorded as 38% in the assay on wildtype mice and “approximately 38%” in the assay with wildtype mice (listed as rANXA6). Moreover, in the assay with wildtype mice (1 mg/kg retro-orbital pretreatment), the “reduction in dye uptake, whole tissue spectroscopic analysis of gastrocnemius/soleus” value came to 58%. Besides, the “Evan's blue dye uptake, fluorescence imaging” value in the assay on wildtype mice (retro-orbital post-treatment immediately after cardiotoxin) and in the assay on wildtype mice (retro-orbital pretreatment 2 hours prior to cardiotoxin) was “significant decrease” throughout. Moreover, the figures for the “anti-HIS staining at the sarcolemma / plasma membrane” value in assay [1] (listed as rANXA6) and in assay [1] (listed as recombinant annexin A6-HIS) were “localized to the plasma membrane” and “presence of recombinant annexin A6-HIS at the sarcolemma”, respectively.
